The target in this assay is Human CD16 (biotinylated, Sino Biological Inc, cat#10389-H27H1-B) (human, UniProt P08637 17-208, biotinylated). As to the kind of experiment: ELISA, biotinylated CD16 captured on neutravidin, anti-human Fab-HRP detection. (In an ELISA, binding on a coated surface is turned into a signal by an enzyme label.)

One molecule from EP2767548A2 (Argen-X B.V., dated 2014) can be followed below.

The term EC50 denotes the concentration needed to bring the measured effect to its halfway point. A low value points to greater potency.

Chain of Human CD16 (biotinylated, Sino Biological Inc, cat#10389-H27H1-B) (P08637 17-208): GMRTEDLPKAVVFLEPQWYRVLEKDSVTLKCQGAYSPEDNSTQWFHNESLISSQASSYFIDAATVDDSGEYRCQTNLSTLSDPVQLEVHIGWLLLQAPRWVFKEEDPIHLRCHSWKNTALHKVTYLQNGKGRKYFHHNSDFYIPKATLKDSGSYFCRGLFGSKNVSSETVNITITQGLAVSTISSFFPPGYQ

B1: IgG3-MAB1 (antibody)
chain 1: QLLLQESGPGLVKPSETLSLTCTVSGGSLSSSFSYWVWIRQPPGKGLEWIGTIYYSGNTYYNPSLKSRLTISVDTSKNHFSLKLSSVTAADTAVYYCARRAGILTGYLDSWGQGTLVTVSS
chain 2: SYVLTQSPSVSVAPGQTARITCGGNNIGSKSVHWYQQKPGQAPVLVVYDDSDRPSGIPERFSASNSGNTATLTISRVEAGDEADYYCQVWDSSSDHVVFGGGTKLTVL
The molecule B1 came in with an EC50 of 3.58 µg/mL.
